# Bridge positions count the residues as written; N and C are the ends. Ends that are not written are not given here.
# Molecular target: T1, human collagen type I (acid soluble, extracted from placenta, Sigma C7774) (human, UniProt P02452 162-1218; P08123 80-1119)
# T1 construct: gelled and dried as a fibril film in the assay; also called dried human collagen; h-Collagen
# Assay: dried collagen assay
# Description: An additional 90 μL is reserved in a HPLC glass vial as a measure of the total concentration.
# T1 sequence (P02452 162-1218 limits assumed, chain 1 of 2): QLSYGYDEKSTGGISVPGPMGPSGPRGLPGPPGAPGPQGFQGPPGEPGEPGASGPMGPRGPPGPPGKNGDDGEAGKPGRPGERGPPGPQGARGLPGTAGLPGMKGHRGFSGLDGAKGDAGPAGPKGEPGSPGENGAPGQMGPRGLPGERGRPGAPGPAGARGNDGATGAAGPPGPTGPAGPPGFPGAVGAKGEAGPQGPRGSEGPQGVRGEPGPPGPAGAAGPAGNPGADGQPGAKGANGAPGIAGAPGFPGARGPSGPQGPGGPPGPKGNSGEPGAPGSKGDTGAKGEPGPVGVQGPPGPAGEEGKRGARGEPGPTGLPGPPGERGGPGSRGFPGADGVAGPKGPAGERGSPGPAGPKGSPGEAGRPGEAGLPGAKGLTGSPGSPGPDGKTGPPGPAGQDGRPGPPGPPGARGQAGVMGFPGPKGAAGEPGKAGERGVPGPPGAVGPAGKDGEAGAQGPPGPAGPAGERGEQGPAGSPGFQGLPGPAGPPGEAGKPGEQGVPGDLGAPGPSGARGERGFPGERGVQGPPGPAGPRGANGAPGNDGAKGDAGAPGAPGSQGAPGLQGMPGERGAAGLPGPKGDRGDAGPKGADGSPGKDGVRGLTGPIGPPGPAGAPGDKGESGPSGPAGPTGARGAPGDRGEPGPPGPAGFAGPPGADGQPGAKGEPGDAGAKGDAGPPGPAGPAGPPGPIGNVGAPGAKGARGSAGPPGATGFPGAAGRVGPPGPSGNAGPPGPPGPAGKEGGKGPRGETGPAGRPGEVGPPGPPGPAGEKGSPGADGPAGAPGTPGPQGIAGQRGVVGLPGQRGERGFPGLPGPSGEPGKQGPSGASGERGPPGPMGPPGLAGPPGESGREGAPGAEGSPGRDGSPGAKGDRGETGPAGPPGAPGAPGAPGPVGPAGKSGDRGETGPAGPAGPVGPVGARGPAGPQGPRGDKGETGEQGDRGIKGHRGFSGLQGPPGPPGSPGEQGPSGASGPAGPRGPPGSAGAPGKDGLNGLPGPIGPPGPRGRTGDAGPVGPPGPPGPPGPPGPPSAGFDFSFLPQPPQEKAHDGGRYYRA
# T1 sequence (P08123 80-1119 limits assumed, chain 2 of 2): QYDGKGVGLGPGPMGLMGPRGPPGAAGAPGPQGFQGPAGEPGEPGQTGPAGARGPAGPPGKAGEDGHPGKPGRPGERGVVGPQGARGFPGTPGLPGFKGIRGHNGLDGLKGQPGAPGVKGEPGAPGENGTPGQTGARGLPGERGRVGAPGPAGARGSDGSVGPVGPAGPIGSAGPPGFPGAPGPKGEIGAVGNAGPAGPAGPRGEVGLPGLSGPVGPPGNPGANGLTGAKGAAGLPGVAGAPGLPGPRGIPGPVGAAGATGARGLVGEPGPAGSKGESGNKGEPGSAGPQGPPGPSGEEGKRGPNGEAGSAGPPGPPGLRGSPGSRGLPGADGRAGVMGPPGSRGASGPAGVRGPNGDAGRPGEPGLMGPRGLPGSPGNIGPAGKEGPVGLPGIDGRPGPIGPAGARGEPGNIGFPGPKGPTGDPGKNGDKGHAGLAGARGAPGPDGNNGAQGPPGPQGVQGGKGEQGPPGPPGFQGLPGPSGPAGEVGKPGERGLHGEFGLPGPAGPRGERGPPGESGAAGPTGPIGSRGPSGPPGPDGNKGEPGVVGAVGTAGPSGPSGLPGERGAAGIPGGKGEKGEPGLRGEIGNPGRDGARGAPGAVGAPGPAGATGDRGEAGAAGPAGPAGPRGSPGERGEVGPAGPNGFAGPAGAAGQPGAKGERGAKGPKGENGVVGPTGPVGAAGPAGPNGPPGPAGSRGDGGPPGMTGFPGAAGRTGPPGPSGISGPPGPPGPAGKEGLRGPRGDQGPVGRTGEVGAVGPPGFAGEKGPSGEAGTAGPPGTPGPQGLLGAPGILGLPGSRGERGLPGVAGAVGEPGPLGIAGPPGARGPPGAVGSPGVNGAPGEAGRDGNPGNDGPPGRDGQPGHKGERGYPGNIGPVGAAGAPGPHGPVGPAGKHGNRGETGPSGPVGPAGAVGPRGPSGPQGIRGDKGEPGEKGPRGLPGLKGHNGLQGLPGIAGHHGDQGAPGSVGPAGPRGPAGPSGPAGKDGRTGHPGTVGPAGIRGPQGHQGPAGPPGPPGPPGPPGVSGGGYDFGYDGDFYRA
row,Binder,% bound
1,VWACRGGTTNWHCDL (disulfide 4-13 (inferred)) [SEQ ID NO: 41],1%
2,PWYCSGDHLDWKCIYQ (disulfide 4-13 (inferred)) [SEQ ID NO: 20],64%
3,FWTCMRDQVGEWHCGTE (disulfide 4-14 (inferred)) [SEQ ID NO: 88],1%
4,NWYCTGTKSWECFWK (disulfide 4-12 (inferred)) [SEQ ID NO: 7],11%
5,AWDCSGNIPTWYCRRL (disulfide 4-13 (inferred)) [SEQ ID NO: 23],44%
6,WWGCRQGTGEHWSHCMWF (disulfide 4-15 (inferred)) [SEQ ID NO: 100],67%
7,WQLCSSRNDHVAYCFVS (disulfide 4-14 (inferred)) [SEQ ID NO: 96],17%
8,YWVCGGDHQSWHCSHP (disulfide 4-13 (inferred)) [SEQ ID NO: 35],8%
9,TWNCYGVTEWHCYMI (disulfide 4-12 (inferred)) [SEQ ID NO: 9],7%
10,DWECHGNEFEWNCLMR (disulfide 4-13 (inferred)) [SEQ ID NO: 22],55%
11,GWNCYEYDSQWICDHL (disulfide 4-13 (inferred)) [SEQ ID NO: 44],28%
12,TWRCDQFKGKWVCRGG (disulfide 4-13 (inferred)) [SEQ ID NO: 42],40%
13,EWRCRGDSSSWLCDYT (disulfide 4-13 (inferred)) [SEQ ID NO: 40],3%
14,IWLCTGGAATWNCKFD (disulfide 4-13 (inferred)) [SEQ ID NO: 25],39%
15,WRCDGDAHDWHCDWF (disulfide 3-12 (inferred)) [SEQ ID NO: 26],25%
16,SWHCFGDNENWMCNLR (disulfide 4-13 (inferred)) [SEQ ID NO: 27],24%
17,YPACDDQTHLWNLACWPA (disulfide 4-15 (inferred)) [SEQ ID NO: 103],2%
18,WISCESSEEKISYCWRA (disulfide 4-14 (inferred)) [SEQ ID NO: 97],13%
19,TWACGWTTTGWDNCRWI (disulfide 4-14 (inferred)) [SEQ ID NO: 90],34%
20,TWMCVDPPLWRCWVQ (disulfide 4-12 (inferred)) [SEQ ID NO: 4],45%
21,PWTCRMTENTWVCDLN (disulfide 4-13 (inferred)) [SEQ ID NO: 47],22%
22,TWQCSGNQKWSCEWF (disulfide 4-12 (inferred)) [SEQ ID NO: 6],20%
23,EWLCVGDSLKWYCKHS (disulfide 4-13 (inferred)) [SEQ ID NO: 24],43%
24,LTVCHPPYYGRCNFV (disulfide 4-12 (inferred)) [SEQ ID NO: 10],9%
25,GWVCGGDHTTWECHLQ (disulfide 4-13 (inferred)) [SEQ ID NO: 31],15%
26,WWTCHMTWSGQWDSCKWH (disulfide 4-15 (inferred)) [SEQ ID NO: 101],56%
27,AWTCVGGEKTWGCVWN (disulfide 4-13 (inferred)) [SEQ ID NO: 33],12%

row,Binder,% bound
1,GWDCQGTDNIWECVRK (disulfide 4-13 (inferred)) [SEQ ID NO: 30],16%
2,PMICHAPYVGKCNFL (disulfide 4-12 (inferred)) [SEQ ID NO: 12],7%
3,WTDCQWMDEQLWTCRWD (disulfide 4-14 (inferred)) [SEQ ID NO: 94],21%
4,WTDCQWMDEQIWTCRWD (disulfide 4-14 (inferred)) [SEQ ID NO: 95],5%
5,GWVCLQKGPKWVCDWD (disulfide 4-13 (inferred)) [SEQ ID NO: 46],23%
6,NWKCWGVVKWECIWA (disulfide 4-12 (inferred)) [SEQ ID NO: 5],24%
7,EWQCTQYANQWNCKYN (disulfide 4-13 (inferred)) [SEQ ID NO: 45],25%
8,WWACQKGQHDWEKCHWL (disulfide 4-14 (inferred)) [SEQ ID NO: 93],5%
9,PLVCHPPYSGSCSLH (disulfide 4-12 (inferred)) [SEQ ID NO: 11],9%
10,DWTCSGDEYTWHCNYE (disulfide 4-13 (inferred)) [SEQ ID NO: 17],78%
11,DWTCRGDEYTWHCNYE (disulfide 4-13 (inferred)) [SEQ ID NO: 14],83%
12,DWTCYGDEYTWHCNYE (disulfide 4-13 (inferred)) [SEQ ID NO: 15],83%
13,DWTCSGDEYYWHCNYE (disulfide 4-13 (inferred)) [SEQ ID NO: 16],83%
14,DWTCSGDEYRWHCNYE (disulfide 4-13 (inferred)) [SEQ ID NO: 19],70%
15,DWTCSGDEYTWYCNYE (disulfide 4-13 (inferred)) [SEQ ID NO: 18],78%
16,DWICHGDFDTWKCDLQ (disulfide 4-13 (inferred)) [SEQ ID NO: 29],16%
17,KWHCELDSHMEWSCSGH (disulfide 4-14 (inferred)) [SEQ ID NO: 89],1%
18,AWSCWIVEGRWNCSDI (disulfide 4-13 (inferred)) [SEQ ID NO: 48],22%
19,DWTCVGDHKTWKCNFH (disulfide 4-13 (inferred)) [SEQ ID NO: 21],57%
20,AKKCWYNDGGHLRCRTL (disulfide 4-14 (inferred)) [SEQ ID NO: 99],3%
21,SWICTGDNIDWNCRFA (disulfide 4-13 (inferred)) [SEQ ID NO: 28],20%
22,WAYCMTDPSGKYRYCQNW (disulfide 4-15 (inferred)) [SEQ ID NO: 102],31%
23,PWQCYSDKTSWVCNLY (disulfide 4-13 (inferred)) [SEQ ID NO: 43],30%
24,NWVCSGDHADWSCALI (disulfide 4-13 (inferred)) [SEQ ID NO: 32],12%
25,MWDCTGNSAEWRCEMQ (disulfide 4-13 (inferred)) [SEQ ID NO: 34],11%
26,TWACGWTTTGWDNCRWI (disulfide 4-14 (inferred)) [SEQ ID NO: 92],34%
